Here are results for one molecule from PMC4682175 (2015).

This assay has as its target T1, Neogenin (Mus musculus, UniProt P97798).
T1 chain: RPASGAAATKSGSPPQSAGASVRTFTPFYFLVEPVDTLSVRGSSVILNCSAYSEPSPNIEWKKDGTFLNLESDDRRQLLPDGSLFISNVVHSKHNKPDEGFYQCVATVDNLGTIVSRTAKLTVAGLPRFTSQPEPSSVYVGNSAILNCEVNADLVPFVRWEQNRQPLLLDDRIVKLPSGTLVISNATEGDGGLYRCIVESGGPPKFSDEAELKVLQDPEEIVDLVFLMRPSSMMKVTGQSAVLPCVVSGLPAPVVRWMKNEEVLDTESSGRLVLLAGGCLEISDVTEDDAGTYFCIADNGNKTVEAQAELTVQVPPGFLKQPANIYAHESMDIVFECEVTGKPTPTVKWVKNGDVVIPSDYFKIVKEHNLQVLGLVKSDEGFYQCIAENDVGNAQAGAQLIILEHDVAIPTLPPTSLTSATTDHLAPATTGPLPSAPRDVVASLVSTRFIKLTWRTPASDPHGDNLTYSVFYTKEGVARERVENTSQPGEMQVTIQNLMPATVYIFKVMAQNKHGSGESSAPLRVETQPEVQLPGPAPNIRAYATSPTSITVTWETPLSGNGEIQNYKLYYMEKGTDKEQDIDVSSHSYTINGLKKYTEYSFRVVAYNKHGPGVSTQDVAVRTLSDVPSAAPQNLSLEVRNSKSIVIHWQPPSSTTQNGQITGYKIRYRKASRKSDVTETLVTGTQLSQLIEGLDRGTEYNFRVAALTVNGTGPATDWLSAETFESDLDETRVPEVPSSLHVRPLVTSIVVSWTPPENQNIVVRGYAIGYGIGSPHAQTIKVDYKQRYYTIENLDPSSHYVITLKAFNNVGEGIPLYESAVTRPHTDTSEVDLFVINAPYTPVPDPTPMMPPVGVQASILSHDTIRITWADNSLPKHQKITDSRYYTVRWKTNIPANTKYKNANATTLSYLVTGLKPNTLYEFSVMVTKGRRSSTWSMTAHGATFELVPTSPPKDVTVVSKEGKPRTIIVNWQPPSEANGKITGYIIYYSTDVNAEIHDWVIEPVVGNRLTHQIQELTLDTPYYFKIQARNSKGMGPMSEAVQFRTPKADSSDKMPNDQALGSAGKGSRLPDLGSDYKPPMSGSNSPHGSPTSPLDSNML
Put plainly: saturation binding of draxin-AP to Neo1-transfected HEK293T cells, Scatchard analysis.

As usually defined, the Kd is the constant that tells how readily two partners part at equilibrium.

B1: Draxin (protein)
chain: GTLASGSSARNLPETHSHLPSSALWVSQASHHGRRGLGKKDRGPGRPSRAQEGAVVTATKQASQMTLGQPPAGLLQNKELLLGLTLPYPEKEARSPAWERVKKRGREHKRRRDRLRLHRGRAAIRGPSSLMKKVEPSEDRMLEGTMEESSTSLAPTMFFLTMTDGATPTTEESRILPVTSLRPQTQPRSDGEVMPTLDMALFDWTDYEDLKPEVWPSAKKKEKHWSHFTSDGNETSPAEGDPCDHHQDCLPGTCCDLREHLCTPHNRGLNNKCFDDCMCMEGLRCYAKFHRNRRVTRRKGRCVEPETANGDQGSFINI
modifications: draxin alkaline phosphatase fusion
Molecule B1 gave a Kd of 0.62 nM.
